In the test the target is T1, flag tagged full length HDAC4 (human, UniProt P56524 1-1084).
T1 construct: Full length, expressed in transfected cells and immunoprecipitated from lysate; also called Flag-HDAC4; pcDNA HDAC4-flag; not shown: Flag tag
Put plainly: co-immunoprecipitation, IP anti-Flag, blot anti-HA (FIG. 7B). How it is done:
Cultured cells were washed with ice-cold phosphate-buffered saline (PBS) buffer and lysed in buffer containing 50 mM Tris, pH 7.5, 150 mM NaCl, 1 mM EDTA, and 1% NP-40. 400 μg of protein was immunoprecipitated with anti-Flag (Sigma-Aldrich), or IgG antibodies (negative control) and protein A/G agarose beads (Santa Cruz Biotechnology, Inc.) as described previously [Kehat I, et al., Modulation of chromatin position and gene expression by HDAC4 interaction with nucleoporins. J Cell Biol 2011, 193, 21-29]. Beads were washed three times with buffer and suspended in 30 μl of Laemmli buffer. Proteins were separated on an SDS gel, blotted, and detected with primary antibody recognizing HA (Santa Cruz Biotechnology, Inc. sc-805) or flag (Sigma-Aldrich).

Results on two molecules are retold here after patent publication US20190309300A1 (TECHNION RESEARCH AND DEVELOPMENT FOUNDATION, published 2019).

T1 sequence (P56524 whole entry): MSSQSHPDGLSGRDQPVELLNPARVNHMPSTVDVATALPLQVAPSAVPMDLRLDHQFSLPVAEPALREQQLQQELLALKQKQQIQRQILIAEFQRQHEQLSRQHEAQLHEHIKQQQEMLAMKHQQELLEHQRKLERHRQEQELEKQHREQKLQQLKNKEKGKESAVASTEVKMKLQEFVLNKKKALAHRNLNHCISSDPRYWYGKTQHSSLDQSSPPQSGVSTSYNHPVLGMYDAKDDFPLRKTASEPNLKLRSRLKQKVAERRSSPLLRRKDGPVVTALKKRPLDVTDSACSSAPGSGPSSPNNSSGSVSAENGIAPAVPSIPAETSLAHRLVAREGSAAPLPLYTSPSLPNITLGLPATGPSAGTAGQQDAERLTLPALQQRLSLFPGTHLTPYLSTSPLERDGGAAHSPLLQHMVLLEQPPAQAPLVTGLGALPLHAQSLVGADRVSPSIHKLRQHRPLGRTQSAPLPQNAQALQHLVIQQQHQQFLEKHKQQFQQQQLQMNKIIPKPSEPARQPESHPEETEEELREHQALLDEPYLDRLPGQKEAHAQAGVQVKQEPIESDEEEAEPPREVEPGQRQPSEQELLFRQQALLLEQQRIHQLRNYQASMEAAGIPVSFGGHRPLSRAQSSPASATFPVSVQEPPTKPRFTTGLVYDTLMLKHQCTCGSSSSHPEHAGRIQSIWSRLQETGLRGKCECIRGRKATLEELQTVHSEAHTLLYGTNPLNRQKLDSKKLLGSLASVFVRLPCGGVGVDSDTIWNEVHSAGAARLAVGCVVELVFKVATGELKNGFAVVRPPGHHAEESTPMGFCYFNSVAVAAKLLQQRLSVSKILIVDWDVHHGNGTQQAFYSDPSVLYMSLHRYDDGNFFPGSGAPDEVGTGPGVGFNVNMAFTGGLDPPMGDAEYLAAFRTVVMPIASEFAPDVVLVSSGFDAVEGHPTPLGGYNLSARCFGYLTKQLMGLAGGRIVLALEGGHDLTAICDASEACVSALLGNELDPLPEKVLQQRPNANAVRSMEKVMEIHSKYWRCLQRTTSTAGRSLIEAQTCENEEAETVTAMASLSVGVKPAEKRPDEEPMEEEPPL

B1: 3HA tagged ENIGMA fragment containing the linker and first LIM domain (other, mouse, UniProt Q3TJD7 86-338, looked up)
chain: PVQSKPQKALTPPADPPRYTFAPSASLNKTARPFGAPPPTDSTLRQNGQLLRQPVPDASKQRLMEDTEDWRPRPGTGQSRSFRILAHLTGTEFMQDPDEEFMKKSSQVPRTEAPAPASTIPQESWPGPTTPSPTSRPPWAVDPAFAERYAPDKTSTVLTRHSQPATPTPLQNRTSIVQAAAGGGTGGGSNNGKTPVCHQCHKIIRGRYLVALGHAYHPEEFVCSQCGKVLEEGGFFEEKGAIFCPSCYDVRYA
notes: domain: linker and first LIM domain; not shown: 3HA tag
As for B1, the binding result is listed as “no binding”.

B2: 3HA tagged ENIGMA fragment containing the PDZ domain and linker (other, mouse, UniProt Q3TJD7 1-279, looked up)
chain: MDSFKVVLEGPAPWGFRLQGGKDFNVPLSISRLTPGGKAAQAGVAVGDWVLNIDGENAGSLTHIEAQNKIRACGERLSLGLSRAQPVQSKPQKALTPPADPPRYTFAPSASLNKTARPFGAPPPTDSTLRQNGQLLRQPVPDASKQRLMEDTEDWRPRPGTGQSRSFRILAHLTGTEFMQDPDEEFMKKSSQVPRTEAPAPASTIPQESWPGPTTPSPTSRPPWAVDPAFAERYAPDKTSTVLTRHSQPATPTPLQNRTSIVQAAAGGGTGGGSNNGKT
notes: domain: PDZ domain and linker; not shown: 3HA tag
Turning to B2, the binding result is reported as “no binding”.
